The source of these data is publication PMC8699718, “A structurally conserved site in AUP1 binds the E2 enzyme UBE2G2 and is essential for ER-associated degradation” (PLoS Biology, 2021).

This experiment has as its system NHK (Null Hong Kong variant of alpha1-antitrypsin). The experiment in a line: CHX chase: NHK degradation in HT1080 UBE2G2 KO cells. The experiment is classed as cell-based, human. The settings on record: re-expression in HT1080 UBE2G2 KO. Here is the method:
Fig 3 The AUP1–UBE2G2 interaction is required for ERAD. (A) Equimolar amounts of GST-AUP1 (aa 292 to 410) or GST were immobilized on glutathione beads and binding to the indicated in vitro translated ^35S-labeled E2s was assessed. Left panel is 5% of input used for binding. E2s are referred to by their unique alpha-numeric designation (e.g., UBE2G1 and UBE2J1). (B) HT1080 or UBE2G2 KO cells were transfected with INSIG-1-MYC and degradation assessed by CHX chase. […] (D) Cells were transfected with NHK-MYC and HA-ubiquitin and ubiquitination of NHK assessed following proteasome inhibition and IP (right panel). Left panel is 10% of total cell lysate used for IP, indicating no discernable change in total ubiquitination. (E) Levels of endogenous HRD1 were monitored by CHX chase in the indicated cell types. (F) Ubiquitination of endogenous HRD1 was assessed following IP with HRD1 antiserum. Arrow in upper panel indicates migration of unmodified HRD1. […]
Plasmid transfections were carried out using PolyFect (Qiagen, Germantown, MD, USA) or JetPrime (Polyplus, New York, NY, USA) reagents. […] Clarified lysates or immunoprecipitates were denatured by heating in NuPAGE LDS Sample Buffer with β-mercaptoethanol at 70°C for 10 minutes, resolved on Bis-Tris polyacrylamide gels in NuPAGE MES or MOPS SDS running buffer and analyzed by western blotting. […]

B1: UBE2G2: ERAD ubiquitin-conjugating enzyme (E2); purified in vitro, N-terminally MYC-tagged in cells (protein)
chain: MAGTALKRLMAEYKQLTLNPPEGIVAGPMNEENFFEWEALIMGPEDTCFEFGVFPAILSFPLDYPLSPPKMRFTCEMFHPNIYPDGRVCISILHAPGDDPMGYESSAERWSPVQSVEKILLSVVSMLAEPNDESGANVDASKMWRDDREQFYKIAKQIVQKSLGL
In the case of B1, the “NHK degradation in UBE2G2 KO cells” value is “restored NHK degradation”.
